Measurements from PMC11602157, “ZNF512B binds RBBP4 via a variant NuRD interaction motif and aggregates chromatin in a NuRD complex-independent manner” (Nucleic Acids Research, 2024).

Assays:
NuRD complex members = experiment: lf-qMS after GFP-Trap IP; format: binding; conditions: GFP-Trap IP vs GFP
Description: Preparation of Micrococcal nuclease (MNase)-digested nuclear extracts was performed as previously described ([15–17],[32]). Briefly, nuclei were isolated by incubation with PBS containing 0.3% Triton™ X-100 for 10 min at 4°C and washed in PBS, before being resolved in 500 μl freshly prepared Ex100 buffer (10 mM HEPES pH 7.6, 100 mM NaCl, 1.5 mM MgCl2, 0.5 mM EGTA, 10% glycerol, 10 mM β-glycerol phosphate, 1 mM Dithiothreitol (DTT), 2 mM CaCl2). Chromatin was then digested with 1.5 U MNase (sufficient for 4 × 10^7 cells, Sigma-Aldrich) for 20 min at 26°C. Digestion was stopped by adding 10 mM EGTA and transferring the sample to 4°C. […]
For label-free quantitative mass spectrometry (lf-qMS), precipitated proteins were eluted by incubation of beads with Elution Buffer (2 M urea, 50 mM Tris/Cl pH 7.5, 2 mM DTT, 20 μg/ml Trypsin Gold [Promega]) for 30 min at 37°C shaking at 1400 rpm in the dark. […]
After tryptic digest (see MNase IP), peptides were desalted on StageTips ([36]) and analysed by nanoflow liquid chromatography on an EASY-nLC 1000 system (Thermo Fisher Scientific) coupled online to a Q Exactive Plus mass spectrometer (Thermo Fisher Scientific). […]
The raw files were processed with MaxQuant ([37]) (version 1.6.5.0) against a human uniprot database (81194 entries). […] The match between run option and the LFQ quantitation were activated. […]

[1] = tested on: 4xUAS-tk-luc reporter in HEK293T cells; experiment: Luciferase reporter assay; format: cell-based; conditions: GAL fusion, 72 h, three biological replicates
Description: Per well of a 6-well plate, 1.5 × 10^5 HEK293T cells were seeded and transfected on the next day using 1 μg of 4xUAS-tk-luc reporter plasmid, 0.5 μg GAL expression vector and 0.5 μg pCMV-lacZ vector for normalization. Cells were directly lysed in well after 72 h with 200 μl Lysis buffer (25 mM Tris/Cl pH 7.5, 8 mM MgCl2, 1 mM EDTA, 1% Triton™ X-100, 15% glycerin, 1 mM DTT) for 15 min at RT. Supernatants were used to measure luciferase activity by mixing 100 μl 1:1 with 90 mg/L D-Luciferin/0.8 mM ATP and quantifying emitted light after 5 s incubation with an Orion L plate reader (Titertek-Berthold). Values were normalized to β-galactosidase activity by adding 5 μL supernatant to 900 μl LacZ buffer (50 mM Na2HPO4, 10 mM KCl, 0.1 mM MgSO4, pH 7) and 100 μl 4 g/L OPNG/0.1 M KPO4. When a color change of the mixture occurred, absorbance at 420 nm was measured.

FLAG-tagged ZNF512B = experiment: Oligomerization: GFP-Trap IP and FLAG immunoblot; format: binding; conditions: co-transfection of GFP- and FLAG-tagged ZNF512B constructs, HeLaK cells
Description: Preparation of DNase-digested cell extracts and immunoprecipitation was performed using GFP-Trap® Magnetic Particles M-270 (Chromotek) following the manufacturer’s protocol. In brief, cells were incubated for 30 min on ice with RIPA buffer (10 mM Tris/Cl pH 7.5, 150 mM NaCl, 0.5 mM EDTA, 0.1% SDS, 1% Triton™ X-100, 1% deoxycholate) supplemented with DNase I (75 Kunitz U/ml, Thermo Fisher Scientific) and MgCl2 (2.5 mM). After centrifugation at 17 000 × g for 10 min at 4°C, lysate was transferred to a fresh tube and mixed with Dilution buffer (10 mM Tris/Cl pH 7.5, 150 mM NaCl, 0.5 mM EDTA). Lysate was then incubated with GFP-Trap® Magnetic Particles M-270 rotating for 1 h at 4°C. For peptide competition, lysate was incubated with peptide solution rotating for 1 h at 4°C before incubation with beads. After incubation, beads were washed three times with Wash buffer (10 mM Tris/Cl pH 7.5, 150 mM NaCl, 0.05% Nonidet™ P-40 Substitute, 0.5 mM EDTA), and precipitated proteins were eluted by boiling beads for 5 min in 2× SDS-sample buffer. Eluates were compared to input material via semi-dry western blotting. Details on applied antibodies and peptides are listed in the Supplementary Data.

B1: ZNF512B: zinc finger protein 512B; GAL-ZNF512B in the reporter assay, GFP-/FLAG-tagged in pull-downs (protein)
chain: MTDPFCVGGRRLPGSSKSGPGKDGSRKEVRLPMLHDPPKMGMPVVRGGQTVPGQAPLCFDPGSPASDKTEGKKKGRPKAENQALRDIPLSLMNDWKDEFKAHSRVKCPNSGCWLEFPSIYGLKYHYQRCQGGAISDRLAFPCPFCEAAFTSKTQLEKHRIWNHMDRPLPASKPGPISRPVTISRPVGVSKPIGVSKPVTIGKPVGVSKPIGISKPVSVGRPMPVTKAIPVTRPVPVTKPVTVSRPMPVTKAMPVTKPITVTKSVPVTKPVPVTKPITVTKLVTVTKPVPVTKPVTVSRPIVVSKPVTVSRPIAISRHTPPCKMVLLTRSENKAPRATGRNSGKKRAADSLDTCPIPPKQARPENGEYGPSSMGQSSAFQLSADTSSGSLSPGSRPSGGMEALKAAGPASPPEEDPERTKHRRKQKTPKKFTGEQPSISGTFGLKGLVKAEDKARVHRSKKQEGPGPEDARKKVPAAPITVSKEAPAPVAHPAPGGPEEQWQRAIHERGEAVCPTCNVVTRKTLVGLKKHMEVCQKLQDALKCQHCRKQFKSKAGLNYHTMAEHSAKPSDAEASEGGEQEERERLRKVLKQMGRLRCPQEGCGAAFSSLMGYQYHQRRCGKPPCEVDSPSFPCTHCGKTYRSKAGHDYHVRSEHTAPPPEEPTDKSPEAEDPLGVERTPSGRVRRTSAQVAVFHLQEIAEDELARDWTKRRMKDDLVPETARLNYTRPGLPTLNPQLLEAWKNEVKEKGHVNCPNDCCEAIYSSVSGLKAHLASCSKGAHLAGKYRCLLCPKEFSSESGVKYHILKTHAENWFRTSADPPPKHRSQDSLVPKKEKKKNLAGGKKRGRKPKERTPEEPVAKLPPRRDDWPPGCRDKGARGSTGRKVGVSKAPEK
modifications: left off: GFP, end not stated, kept
- binding to NuRD complex members by lf-qMS (NuRD complex members): NIM-dependent binding of ZNF512B to all known NuRD complex members was observed
- repression of luciferase reporter [1]: strong repression effect
- oligomer formation (FLAG-tagged ZNF512B): able to form oligomers that are strictly dependent on the ZF domains
